Test results: PMC12713436 (2025)

Molecular target: secretory immunoglobulin A1 (sIgA1) from human colostrum (human (endogenous in colostrum), UniProt P01591 23-159; P01833 19-603, dense O-glycosylation, predominantly in the hinge region)
Test: apparent Kd from DLS Hill fit, h = 2.04

Sequence of secretory immunoglobulin A1 (sIgA1) from human colostrum (chain, as listed by the source, chain 1 of 3): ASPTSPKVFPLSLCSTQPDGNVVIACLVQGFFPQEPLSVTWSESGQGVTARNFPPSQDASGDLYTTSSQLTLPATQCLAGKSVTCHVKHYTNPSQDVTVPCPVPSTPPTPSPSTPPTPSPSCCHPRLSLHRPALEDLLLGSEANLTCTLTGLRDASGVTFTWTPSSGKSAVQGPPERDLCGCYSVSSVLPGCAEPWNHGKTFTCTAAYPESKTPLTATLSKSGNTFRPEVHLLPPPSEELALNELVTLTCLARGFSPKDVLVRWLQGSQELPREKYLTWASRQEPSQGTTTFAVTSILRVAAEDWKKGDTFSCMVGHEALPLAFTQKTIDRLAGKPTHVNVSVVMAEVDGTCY
Sequence of secretory immunoglobulin A1 (sIgA1) from human colostrum (P01591 23-159, chain 2 of 3): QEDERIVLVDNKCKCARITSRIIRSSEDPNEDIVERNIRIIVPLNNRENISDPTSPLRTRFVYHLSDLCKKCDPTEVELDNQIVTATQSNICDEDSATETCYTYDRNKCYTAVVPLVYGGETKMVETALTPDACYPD
Sequence of secretory immunoglobulin A1 (sIgA1) from human colostrum (P01833 19-603, chain 3 of 3): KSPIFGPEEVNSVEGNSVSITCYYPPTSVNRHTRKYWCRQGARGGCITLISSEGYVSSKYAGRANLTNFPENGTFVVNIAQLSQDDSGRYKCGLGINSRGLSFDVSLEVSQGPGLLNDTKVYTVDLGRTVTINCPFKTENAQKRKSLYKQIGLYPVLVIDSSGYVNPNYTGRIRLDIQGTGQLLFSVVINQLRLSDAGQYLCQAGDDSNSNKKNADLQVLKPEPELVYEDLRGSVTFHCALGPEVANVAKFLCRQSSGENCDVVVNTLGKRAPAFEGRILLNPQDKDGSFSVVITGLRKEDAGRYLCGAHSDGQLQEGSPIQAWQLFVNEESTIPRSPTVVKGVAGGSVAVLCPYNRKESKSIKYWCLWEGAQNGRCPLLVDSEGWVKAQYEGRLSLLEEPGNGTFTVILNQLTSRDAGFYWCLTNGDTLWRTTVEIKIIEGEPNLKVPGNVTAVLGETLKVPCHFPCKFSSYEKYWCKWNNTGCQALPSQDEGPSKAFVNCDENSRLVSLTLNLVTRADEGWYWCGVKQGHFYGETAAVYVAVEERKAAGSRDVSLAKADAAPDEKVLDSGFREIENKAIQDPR

- Kd: 930 nM
B1: frutalin (FTL), galactose-specific jacalin-related lectin from Artocarpus altilis (syn. Artocarpus incisa) seeds (natural protein)
chain 1: GKAFDDGAFTGIREINLSYNKETAIGDFQVIYDLNGSPFVGQNHTSFITGFTPVKISLDFPSEYIIEVSGHTGKVSGYVVVRSLAFKTNKKTYGPYGVTSGTPFNLPIENGLIVGFKGSIGYWLDYFSMYLSL
chain 2: AEQSGKSQTVIVGPWGAQVS
modifications: α-chain glycoisoforms (differential glycosylation and limited proteolysis)
